Substitutions are numbered along the chain they refer to.
Assays:
[1] = biological target: T1, Aβ1-42 fibrils (human); assay: SPR, Biacore T200; Aβ1-42 fibrils amine-coupled to CM5 chip, antibody flowed over
T1 construct: Synthetic Aβ1-42 polypeptide (GL Biochem) made into fibrils in vitro (DMSO, diluted in water, 37 °C for 10 days); In the phagocytosis assays the fibrils were fluorescence (FITC) labeled; also called Aβ fibrils; Abeta fibrils
Method: (§1) The affinity of an antibody to Aβ1-42 fibrils was detected by the method of amino coupling. Aβ1-42 fibrils was coupled to CM5 biosensing chip (200 RU), and then the antibody molecules were allowed to flow through the surface of the chip. The reaction signals were detected in real time with Biacore T200 instrument to generate a binding and dissociation curve. At the end of each experimental cycle, after the dissociation was completed, the biosensor chip was washed and regenerated with 10 mM Glycine-HCl (pH 1.5). The positive antibody, Aducanumab, was prepared according to the sequence information about Aducanumab released by WHO (see WHO Drug Information, Vol. 28, No. 3, 2014), and the preparation method was described in Example 4 of the present disclosure.

[2] = biological target: T2, Aβ1-42 monomer (human); assay: SPR, Biacore T200; IgG captured on Protein A chip, Aβ1-42 monomer flowed over
T2 construct: Synthetic peptide: Sigma A9810 dissolved in DMSO for Biacore; GenScript RP10017 in NaOH/PBS for the ThT assay; also called human Aβ1-42
T2 sequence (peptide, as listed by the source): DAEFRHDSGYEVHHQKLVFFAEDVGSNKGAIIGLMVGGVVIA
Method: (§2) The affinity of an antibody to Aβ1-42 monomer was detected by capturing antibody on the chip. IgG was affinity-captured onto Protein A biosensing chip, and then the antigen […] monomer was allowed to flow through the surface of the chip. The reaction signals were detected in real time with Biacore T200 instrument to generate a binding and dissociation curve. At the end of each experimental cycle, after the dissociation was completed, the biosensor chip was washed and regenerated with 10 mM Glycine-HCl (pH1.5).

[3] = biological target: T2, Aβ1-42 monomer; assay: cell-based or functional assay
[4] = biological target: T1, Aβ1-42 fibrils; assay: SPR, Biacore T200; Aβ1-42 fibrils on CM5 chip; reference Aducanumab
Method: as §1

[5] = biological target: T2, Aβ1-42 monomer; assay: SPR, Biacore T200; IgG on Protein A chip, Aβ1-42 monomer as analyte; reference Aducanumab
Method: as §2

T1 sequence (peptide, as listed by the source): as above

B1: HAB-5101 (antibody, human IgG1, kappa, V domains shown)
VH: QVTLKESGPALVKPTQTLTLTCTFSGFSLSTSGMGVSWIRQPPGKALEWLAHIYWDDVSLYNPSLKSRLTISKDTSKNQVVLTMTNMDPVDTATYYCARRRIITVVDAMDYWGQGTTVTVSS
VL: DVVMTQTPLSLPVTPGEPASISCRSSQSIVHSNGNTYLEWYLQKPGQSPKLLIYKVSNRFSGVPDRFSGSGSGTDFTLKISRVEAEDVGVYYCSQGSRVPPTFGGGTKVEIKR
[1]
  Kd: 1.22 nM
[2]
  Kd: 333 nM
[3]
  IC50 (read off the curve): ~800 nM

B2: HAB-9001 (antibody, human IgG1, kappa, V domains shown)
VH: QVTLKESGPALVKPTQTLTLTCTFSGFSLSTFGMGVGWIRQPPGKALEWLAHIWWDDNKYYNPALKSRLTISKDTSKNQVVLTMTNMDPVDTATYYCARRGFHLGSRGDYFDHWGQGTTVTVSS
VL: B1 VL with K50Q, S94F, P101L, G105Q, V109L
[4]
  affinity relative to Aducanumab: 2 orders of magnitude
[1]
  Kd: 0.213 nM
[2]
  Kd: 27.9 nM
[5]
  affinity relative to Aducanumab: 2 orders of magnitude

B3: HAB-2401 (antibody, human IgG1, kappa, V domains shown)
VH: EVQLVQSGAEVKKPGASVKVSCKVSGYTLTNTYMHWVRQAPGKGLEWMGRIDPTNGNTKYAPKFKDRVTMTADTSTDTAYMELSSLRSEDTAVYYCARRVYYYDSTYNYWGKGTTVTVSS
VL: DIQMTQSPSSLSASVGDRVTITCKSSQSLLNSGNQKNYLTWYQQKPGKVPKLLIYWASTRESGVPSRFSGSGSGTDFTLTISSLQPEDVATYYCQNDYNYPLTFGGGTKVEIKR
[1]
  Kd: 11.7 nM
[2]
  Kd: 229 nM

From patent US20210371506A1 (JIANGSU HENGRUI MEDICINE, published 2021)
